Test results published in patent publication US20150344570A1 (published 2015).

B1: GpH7-A5/GpH7-B3 variant P331_03V/GpL16-k0 (antibody, human IgG1, kappa)
heavy 1: not shown
heavy 2: not shown
light: DIVMTQSPLSLPVTPGEPASISCQASESLVHSNRNTYLHWYLQKPGQSPQLLIYKVSNRFSGVPDRFSGSGSGTDFTLKISRVEAEDVGVYYCSQNTHVPPTFGQGTKVEIERTVAAPSVFIFPPSDEQLKSGTASVVCLLNNFYPREAKVQWKVDNALQSGNSQESVTEQDSKDSTYSLSSTLTLSKADYEKHKVYACEVTHQGLSSPVTKSFNRGEC
notes: also called He Ab P331_03V
B2: GpH7-A5/GpH7-B3 variant P238_20W/GpL16-k0 (antibody, human IgG1, kappa)
heavy 1: not shown
heavy 2: not shown
light: DIVMTQSPLSLPVTPGEPASISCQASESLVHSNRNTYLHWYLQKPGQSPQLLIYKVSNRFSGVPDRFSGSGSGTDFTLKISRVEAEDVGVYYCSQNTHVPPTFGQGTKVEIERTVAAPSVFIFPPSDEQLKSGTASVVCLLNNFYPREAKVQWKVDNALQSGNSQESVTEQDSKDSTYSLSSTLTLSKADYEKHKVYACEVTHQGLSSPVTKSFNRGEC
notes: also called He Ab P238_20W
B3: GpH7-A5/GpH7-B3 variant S337_07I/GpL16-k0 (antibody, human IgG1, kappa)
heavy 1: not shown
heavy 2: not shown
light: DIVMTQSPLSLPVTPGEPASISCQASESLVHSNRNTYLHWYLQKPGQSPQLLIYKVSNRFSGVPDRFSGSGSGTDFTLKISRVEAEDVGVYYCSQNTHVPPTFGQGTKVEIERTVAAPSVFIFPPSDEQLKSGTASVVCLLNNFYPREAKVQWKVDNALQSGNSQESVTEQDSKDSTYSLSSTLTLSKADYEKHKVYACEVTHQGLSSPVTKSFNRGEC
notes: also called He Ab S337_07I
B4: GpH7-A5/GpH7-B3 variant P271_09D/GpL16-k0 (antibody, human IgG1, kappa)
heavy 1: not shown
heavy 2: not shown
light: DIVMTQSPLSLPVTPGEPASISCQASESLVHSNRNTYLHWYLQKPGQSPQLLIYKVSNRFSGVPDRFSGSGSGTDFTLKISRVEAEDVGVYYCSQNTHVPPTFGQGTKVEIERTVAAPSVFIFPPSDEQLKSGTASVVCLLNNFYPREAKVQWKVDNALQSGNSQESVTEQDSKDSTYSLSSTLTLSKADYEKHKVYACEVTHQGLSSPVTKSFNRGEC
notes: also called He Ab P271_09D
B5: GpH7-A5/GpH7-B3 variant P331_20W/GpL16-k0 (antibody, human IgG1, kappa)
heavy 1: not shown
heavy 2: not shown
light: DIVMTQSPLSLPVTPGEPASISCQASESLVHSNRNTYLHWYLQKPGQSPQLLIYKVSNRFSGVPDRFSGSGSGTDFTLKISRVEAEDVGVYYCSQNTHVPPTFGQGTKVEIERTVAAPSVFIFPPSDEQLKSGTASVVCLLNNFYPREAKVQWKVDNALQSGNSQESVTEQDSKDSTYSLSSTLTLSKADYEKHKVYACEVTHQGLSSPVTKSFNRGEC
notes: also called He Ab P331_20W
B6: GpH7-A5/GpH7-B3 variant S298_06M/GpL16-k0 (antibody, human IgG1, kappa)
heavy 1: not shown
heavy 2: not shown
light: DIVMTQSPLSLPVTPGEPASISCQASESLVHSNRNTYLHWYLQKPGQSPQLLIYKVSNRFSGVPDRFSGSGSGTDFTLKISRVEAEDVGVYYCSQNTHVPPTFGQGTKVEIERTVAAPSVFIFPPSDEQLKSGTASVVCLLNNFYPREAKVQWKVDNALQSGNSQESVTEQDSKDSTYSLSSTLTLSKADYEKHKVYACEVTHQGLSSPVTKSFNRGEC
notes: also called He Ab S298_06M
B7: GpH7-A5/GpH7-B3 variant S267_01G/GpL16-k0 (antibody, human IgG1, kappa)
heavy 1: not shown
heavy 2: not shown
light: DIVMTQSPLSLPVTPGEPASISCQASESLVHSNRNTYLHWYLQKPGQSPQLLIYKVSNRFSGVPDRFSGSGSGTDFTLKISRVEAEDVGVYYCSQNTHVPPTFGQGTKVEIERTVAAPSVFIFPPSDEQLKSGTASVVCLLNNFYPREAKVQWKVDNALQSGNSQESVTEQDSKDSTYSLSSTLTLSKADYEKHKVYACEVTHQGLSSPVTKSFNRGEC
notes: also called He Ab S267_01G
B8: GpH7-A5/GpH7-B3 variant S239_10E/GpL16-k0 (antibody, human IgG1, kappa)
heavy 1: not shown
heavy 2: not shown
light: DIVMTQSPLSLPVTPGEPASISCQASESLVHSNRNTYLHWYLQKPGQSPQLLIYKVSNRFSGVPDRFSGSGSGTDFTLKISRVEAEDVGVYYCSQNTHVPPTFGQGTKVEIERTVAAPSVFIFPPSDEQLKSGTASVVCLLNNFYPREAKVQWKVDNALQSGNSQESVTEQDSKDSTYSLSSTLTLSKADYEKHKVYACEVTHQGLSSPVTKSFNRGEC
notes: also called He Ab S239_10E
B9: GpH7-A5/GpH7-B3 variant S239_06M/GpL16-k0 (antibody, human IgG1, kappa)
heavy 1: not shown
heavy 2: not shown
light: DIVMTQSPLSLPVTPGEPASISCQASESLVHSNRNTYLHWYLQKPGQSPQLLIYKVSNRFSGVPDRFSGSGSGTDFTLKISRVEAEDVGVYYCSQNTHVPPTFGQGTKVEIERTVAAPSVFIFPPSDEQLKSGTASVVCLLNNFYPREAKVQWKVDNALQSGNSQESVTEQDSKDSTYSLSSTLTLSKADYEKHKVYACEVTHQGLSSPVTKSFNRGEC
notes: also called He Ab S239_06M
B10: GpH7-A5/GpH7-B3 variant P331_16H/GpL16-k0 (antibody, human IgG1, kappa)
heavy 1: not shown
heavy 2: not shown
light: DIVMTQSPLSLPVTPGEPASISCQASESLVHSNRNTYLHWYLQKPGQSPQLLIYKVSNRFSGVPDRFSGSGSGTDFTLKISRVEAEDVGVYYCSQNTHVPPTFGQGTKVEIERTVAAPSVFIFPPSDEQLKSGTASVVCLLNNFYPREAKVQWKVDNALQSGNSQESVTEQDSKDSTYSLSSTLTLSKADYEKHKVYACEVTHQGLSSPVTKSFNRGEC
notes: also called He Ab P331_16H
B11: GpH7-A5/GpH7-B3 variant S337_08L/GpL16-k0 (antibody, human IgG1, kappa)
heavy 1: not shown
heavy 2: not shown
light: DIVMTQSPLSLPVTPGEPASISCQASESLVHSNRNTYLHWYLQKPGQSPQLLIYKVSNRFSGVPDRFSGSGSGTDFTLKISRVEAEDVGVYYCSQNTHVPPTFGQGTKVEIERTVAAPSVFIFPPSDEQLKSGTASVVCLLNNFYPREAKVQWKVDNALQSGNSQESVTEQDSKDSTYSLSSTLTLSKADYEKHKVYACEVTHQGLSSPVTKSFNRGEC
notes: also called He Ab S337_08L

Target: T1, FcγRIIb extracellular domain with C-terminal His tag (human, UniProt P31994 43-217)
T1 construct: extracellular domain; also called FcgRIIb; 2b
T1 sequence (looked up): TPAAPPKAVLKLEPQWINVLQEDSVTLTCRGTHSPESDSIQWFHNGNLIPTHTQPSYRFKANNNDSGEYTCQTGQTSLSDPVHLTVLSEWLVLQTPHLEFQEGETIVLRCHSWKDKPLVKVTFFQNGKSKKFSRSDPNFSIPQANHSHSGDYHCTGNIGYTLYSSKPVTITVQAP
Assay: SPR (Biacore), relative binding

Binder | He/Con_2b
B1 | 119 % of HeCon Ab GpH7-A5/GpH7-B3/GpL16-k0
B2 | 123 % of HeCon Ab GpH7-A5/GpH7-B3/GpL16-k0
B3 | 104 % of HeCon Ab GpH7-A5/GpH7-B3/GpL16-k0
B4 | 120 % of HeCon Ab GpH7-A5/GpH7-B3/GpL16-k0
B5 | 111 % of HeCon Ab GpH7-A5/GpH7-B3/GpL16-k0
B6 | 102 % of HeCon Ab GpH7-A5/GpH7-B3/GpL16-k0
B7 | 105 % of HeCon Ab GpH7-A5/GpH7-B3/GpL16-k0
B8 | 181 % of HeCon Ab GpH7-A5/GpH7-B3/GpL16-k0
B9 | 101 % of HeCon Ab GpH7-A5/GpH7-B3/GpL16-k0
B10 | 116 % of HeCon Ab GpH7-A5/GpH7-B3/GpL16-k0
B11 | 100 % of HeCon Ab GpH7-A5/GpH7-B3/GpL16-k0
